Measurements taken from patent US20250270328A1 (BRIGHAM AND WOMEN S HOSPITAL, published 2025).

T1: human KLRB1 protein extracellular domain (ECD) (human, UniProt Q12918 67-225)
T1 construct: range 67-225; The ELISA and SPR text says only 'human KLRB1 ECD'; also called human KLRB1 ECD; CD161
T1 sequence (looked up): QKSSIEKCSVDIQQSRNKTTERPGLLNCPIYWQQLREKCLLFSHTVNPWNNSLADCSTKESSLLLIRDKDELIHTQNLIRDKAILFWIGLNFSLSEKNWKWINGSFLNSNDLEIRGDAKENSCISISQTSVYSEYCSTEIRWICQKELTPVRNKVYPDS


Biological target: T1, human KLRB1 protein extracellular …
Experiment: SPR, human KLRB1 ECD; format not stated
Procedure: The chimeric antibody 10A3D6-hIgGlk (a mouse/human chimeric antibody with 10A3D6 variable regions and human IgG1-kappa constant regions), chimeric mutated variants (10A3D6C109S, 10A3D6C109F, and 10A3D6C109V), and humanized variants of 10A3D6 created by CDR grafting (Almagro et al. 2008) were assayed for binding against human KLRB1 extracellular domain (ECD) via surface plasma resonance (SPR).

Kd [nM]	koff [s⁻¹]	kon [M⁻¹ s⁻¹]	Binder
0.106	9.54e-05	903000	10A3D6C109Chum2.2 (antibody, V domains shown, Humanized variant of 10A3D6 made by CDR grafting) VH: QVQLVQSGAEVKKPGASVKVSCKASGYSFTGYTMNWVRQAPGQNLEWIGLINPNTGGTYYNQKFKDRVTLTVDTSISTAYMELSRLRSDDTAVYYCARLGDNYRGYFDCWGQGTTVTVSS VL: DIQLTQSPSFLSASVGDRVTITCKASQDVGTAVVWYQQKPGKAPKLLIDWASIRHTGVPSRFSGSGSGTEFTLTISSLQPEDFADYFCQQYSTYLYTFGGGTKLEIK
0.0985	9.41e-05	955000	10A3D6C109Chum2.3 (antibody, V domains shown, Humanized variant of 10A3D6 made by CDR grafting) VH: QVQLVQSGAEVKKPGASVKVSCKASGYSFTGYTMNWVRQAPGQNLEWIGLINPNTGGTYYNQKFKDRVTLTVDTSISTAYMELSRLRSDDTAVYYCARLGDNYRGYFDCWGQGTTVTVSS VL: DIQLTQSPSFLSASVGDRVTITCKASQDVGTAVVWYQQTPGKAPKLLIDWASIRHTGVPSRFSGSGSGTEFTLTISSLQPEDFADYFCQQYSTYLYTFGGGTKLEIK
0.135	0.000112	832000	10A3D6C109Chum3.2 (antibody, V domains shown, Humanized variant of 10A3D6 made by CDR grafting) VH: QVQLVQSGAEVKKPGASVKVSCKASGYSFTGYTMNWVRQAHGQNLEWIGLINPNTGGTYYNQKFKDRVTLTVDTSISTAYMELSRLRSDDTAVYYCARLGDNYRGYFDCWGQGTTVTVSS VL: DIQLTQSPSFLSASVGDRVTITCKASQDVGTAVVWYQQKPGKAPKLLIDWASIRHTGVPSRFSGSGSGTEFTLTISSLQPEDFADYFCQQYSTYLYTFGGGTKLEIK
15.8	0.00721	457000	10A3D6C109Chum3.1 (antibody, V domains shown, Humanized variant of 10A3D6 made by CDR grafting) VH: QVQLVQSGAEVKKPGASVKVSCKASGYSFTGYTMNWVRQAHGQNLEWIGLINPNTGGTYYNQKFKDRVTLTVDTSISTAYMELSRLRSDDTAVYYCARLGDNYRGYFDCWGQGTTVTVSS VL: DIQLTQSPSFLSASVGDRVTITCKASQDVGTAVVWYQQKPGKAPKLLIYWASIRHTGVPSRFSGSGSGTEFTLTISSLQPEDFATYYCQQYSTYLYTFGGGTKLEIK
9.42	0.00296	314000	10A3D6C109Chum1.1 (antibody, V domains shown, Humanized variant of 10A3D6 made by CDR grafting) VH: QVQLVQSGAEVKKPGASVKVSCKASGYSFTGYTMNWVRQAPGQGLEWMGLINPNTGGTYYNQKFKDRVTMTRDTSISTAYMELSRLRSDDTAVYYCARLGDNYRGYFDCWGQGTTVTVSS VL: DIQLTQSPSFLSASVGDRVTITCKASQDVGTAVVWYQQKPGKAPKLLIYWASIRHTGVPSRFSGSGSGTEFTLTISSLQPEDFATYYCQQYSTYLYTFGGGTKLEIK
0.0976	9.68e-05	992000	10A3D6C109Chum2.4 (antibody, V domains shown, Humanized variant of 10A3D6 made by CDR grafting) VH: QVQLVQSGAEVKKPGASVKVSCKASGYSFTGYTMNWVRQAPGQNLEWIGLINPNTGGTYYNQKFKDRVTLTVDTSISTAYMELSRLRSDDTAVYYCARLGDNYRGYFDCWGQGTTVTVSS VL: DIQLTQSPSFLSASVGDRVTITCKASQDVGTAVVWYQQTPGKAPKLLIDWASIRHTGVPDRFSGSGSGTEFTLTISSLQPEDFADYFCQQYSTYLYTFGGGTKLEIK
0.109	9.89e-05	905000	10A3D6C109Chum3.3 (antibody, V domains shown, Humanized variant of 10A3D6 made by CDR grafting) VH: QVQLVQSGAEVKKPGASVKVSCKASGYSFTGYTMNWVRQAHGQNLEWIGLINPNTGGTYYNQKFKDRVTLTVDTSISTAYMELSRLRSDDTAVYYCARLGDNYRGYFDCWGQGTTVTVSS VL: DIQLTQSPSFLSASVGDRVTITCKASQDVGTAVVWYQQTPGKAPKLLIDWASIRHTGVPSRFSGSGSGTEFTLTISSLQPEDFADYFCQQYSTYLYTFGGGTKLEIK
0.0907	9.2e-05	1.01e+06	10A3D6C109Chum3.4 (antibody, V domains shown, Humanized variant of 10A3D6 made by CDR grafting) VH: QVQLVQSGAEVKKPGASVKVSCKASGYSFTGYTMNWVRQAHGQNLEWIGLINPNTGGTYYNQKFKDRVTLTVDTSISTAYMELSRLRSDDTAVYYCARLGDNYRGYFDCWGQGTTVTVSS VL: DIQLTQSPSFLSASVGDRVTITCKASQDVGTAVVWYQQTPGKAPKLLIDWASIRHTGVPDRFSGSGSGTEFTLTISSLQPEDFADYFCQQYSTYLYTFGGGTKLEIK
21.7	0.00253	117000	10A3D6C109Chum4.1 (antibody, V domains shown, Humanized variant of 10A3D6 made by CDR grafting) VH: QVQLVQSGAEVKKPGASVKVSCKASGYSFTGYTMNWVRQAHGQNLEWIGLINPNTGGTYYNQKFKDRATLTVDTSISTAYMELSRLRSDDTAVYYCARLGDNYRGYFDCWGQGTTVTVSS VL: DIQLTQSPSFLSASVGDRVTITCKASQDVGTAVVWYQQKPGKAPKLLIYWASIRHTGVPSRFSGSGSGTEFTLTISSLQPEDFATYYCQQYSTYLYTFGGGTKLEIK
0.0717	8.6e-05	1.2e+06	10A3D6C109Chum1.4 (antibody, V domains shown, Humanized variant of 10A3D6 made by CDR grafting) VH: QVQLVQSGAEVKKPGASVKVSCKASGYSFTGYTMNWVRQAPGQGLEWMGLINPNTGGTYYNQKFKDRVTMTRDTSISTAYMELSRLRSDDTAVYYCARLGDNYRGYFDCWGQGTTVTVSS VL: DIQLTQSPSFLSASVGDRVTITCKASQDVGTAVVWYQQTPGKAPKLLIDWASIRHTGVPDRFSGSGSGTEFTLTISSLQPEDFADYFCQQYSTYLYTFGGGTKLEIK
0.0932	9.35e-05	1e+06	10A3D6C109Chum1.2 (antibody, V domains shown, Humanized variant of 10A3D6 made by CDR grafting) VH: QVQLVQSGAEVKKPGASVKVSCKASGYSFTGYTMNWVRQAPGQGLEWMGLINPNTGGTYYNQKFKDRVTMTRDTSISTAYMELSRLRSDDTAVYYCARLGDNYRGYFDCWGQGTTVTVSS VL: DIQLTQSPSFLSASVGDRVTITCKASQDVGTAVVWYQQKPGKAPKLLIDWASIRHTGVPSRFSGSGSGTEFTLTISSLQPEDFADYFCQQYSTYLYTFGGGTKLEIK
12.9	0.00408	315000	10A3D6C109Chum2.1 (antibody, V domains shown, Humanized variant of 10A3D6 made by CDR grafting) VH: QVQLVQSGAEVKKPGASVKVSCKASGYSFTGYTMNWVRQAPGQNLEWIGLINPNTGGTYYNQKFKDRVTLTVDTSISTAYMELSRLRSDDTAVYYCARLGDNYRGYFDCWGQGTTVTVSS VL: DIQLTQSPSFLSASVGDRVTITCKASQDVGTAVVWYQQKPGKAPKLLIYWASIRHTGVPSRFSGSGSGTEFTLTISSLQPEDFATYYCQQYSTYLYTFGGGTKLEIK
0.1	0.0001	999000	10A3D6C109Chum1.3 (antibody, V domains shown, Humanized variant of 10A3D6 made by CDR grafting) VH: QVQLVQSGAEVKKPGASVKVSCKASGYSFTGYTMNWVRQAPGQGLEWMGLINPNTGGTYYNQKFKDRVTMTRDTSISTAYMELSRLRSDDTAVYYCARLGDNYRGYFDCWGQGTTVTVSS VL: DIQLTQSPSFLSASVGDRVTITCKASQDVGTAVVWYQQTPGKAPKLLIDWASIRHTGVPSRFSGSGSGTEFTLTISSLQPEDFADYFCQQYSTYLYTFGGGTKLEIK
0.259	0.000123	475000	10A3D6 (murine monoclonal antibody) (antibody, mouse IgG1, copies: 2 + 2) heavy: EVQLQQSGPELVKPGASMKISCKASGYSFTGYTMNWVKQSHGKNLEWIGLINPNTGGTYYNQKFKDKATLTVDKSSSTAYMELLSLTSEDSAVYYCARLGDNYRGYFDCWGQGTTLTVSSAKTTPPSVYPLAPGSAAQTNSMVTLGCLVKGYFPEPVTVTWNSGSLSSGVHTFPAVLQSDLYTLSSSVTVPSSPRPSETVTCNVAHPASSTKVDKKIVPRDCGCKPCICTVPEVSSVFIFPPKPKDVLTITLTPKVTCVVVDISKDDPEVQFSWFVDDVEVHTAQTQPREEQFNSTFRSVSELPIMHQDWLNGKEFKCRVNSAAFPAPIEKTISKTKGRPKAPQVYTIPPPKEQMAKDKVSLTCMITDFFPEDITVEWQWNGQPAENYKNTQPIMNTNGSYFVYSKLNVQKSNWEAGNTFTCSVLHEGLHNHHTEKSLSHSPGK light: DIVMTQSHKFMSTSVGDRVNITCKASQDVGTAVVWYQQTPGQSPKVLIDWASIRHTGVPDRFTGSGSGTDFTLTISSVQSEDLADYFCQQYSTYLYTFGGGTKLEIKRADAAPTVSIFPPSSEQLTSGGASVVCFLNNFYPKDINVKWKIDGSERQNGVLNSWTDQDSKDSTYSMSSTLTLTKDEYERHNSYTCEATHKTSTSPIVKSFNRNEC
0.0511	0.000303	5.93e+06	10A3D6C109S-chimeric (antibody, human IgG1, V domains shown, Chimeric mutated variant; the name hIgG1k indicates human IgG1 kappa constant regions; also called 10A3D6C109ShIgG1k) VH: EVQLQQSGPELVKPGASMKISCKASGYSFTGYTMNWVKQSHGKNLEWIGLINPNTGGTYYNQKFKDKATLTVDKSSSTAYMELLSLTSEDSAVYYCARLGDNYRGYFDSWGQGTTLTVSS VL: DIVMTQSHKFMSTSVGDRVNITCKASQDVGTAVVWYQQTPGQSPKVLIDWASIRHTGVPDRFTGSGSGTDFTLTISSVQSEDLADYFCQQYSTYLYTFGGGTKLEIK
0.0627	0.000336	5.36e+06	10A3D6C109F-chimeric (antibody, human IgG1, V domains shown, Chimeric mutated variant; the name hIgG1k indicates human IgG1 kappa constant regions; also called 10A3D6C109FhIgG1k) VH: EVQLQQSGPELVKPGASMKISCKASGYSFTGYTMNWVKQSHGKNLEWIGLINPNTGGTYYNQKFKDKATLTVDKSSSTAYMELLSLTSEDSAVYYCARLGDNYRGYFDFWGQGTTLTVSS VL: DIVMTQSHKFMSTSVGDRVNITCKASQDVGTAVVWYQQTPGQSPKVLIDWASIRHTGVPDRFTGSGSGTDFTLTISSVQSEDLADYFCQQYSTYLYTFGGGTKLEIK
0.0436	0.000293	6.72e+06	10A3D6C109V-chimeric (antibody, human IgG1, V domains shown, Chimeric mutated variant; the name hIgG1k indicates human IgG1 kappa constant regions; also called 10A3D6C109VhIgG1k) VH: EVQLQQSGPELVKPGASMKISCKASGYSFTGYTMNWVKQSHGKNLEWIGLINPNTGGTYYNQKFKDKATLTVDKSSSTAYMELLSLTSEDSAVYYCARLGDNYRGYFDVWGQGTTLTVSS VL: DIVMTQSHKFMSTSVGDRVNITCKASQDVGTAVVWYQQTPGQSPKVLIDWASIRHTGVPDRFTGSGSGTDFTLTISSVQSEDLADYFCQQYSTYLYTFGGGTKLEIK
